Results reported in paper PMC9115778.

What was measured:
[1] = molecular target: human IR L1-CR-L2/α-CT domains (human) (UniProt P06213); test: ITC
[2] = molecular target: human IR FnIII-1 domain (residues 460-596; C468A, C524A, DFR496-498AAA) (human) (UniProt P06213); test: ITC

insulin WT (ΔB30; desB30 human insulin) (ligand)
Kd [1]: 90 nM
Kd [2]: 760 nM
